Holding throughout (assay): FP
Experiment [1] addresses T1, MCL-1ΔNΔC.
T1 chain: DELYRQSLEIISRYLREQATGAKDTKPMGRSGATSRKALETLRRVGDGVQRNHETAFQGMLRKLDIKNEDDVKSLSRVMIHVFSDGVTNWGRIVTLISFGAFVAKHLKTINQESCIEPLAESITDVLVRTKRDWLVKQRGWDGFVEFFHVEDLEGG

Experiment [2] deals with T2, BCL-WΔC.
T2 chain: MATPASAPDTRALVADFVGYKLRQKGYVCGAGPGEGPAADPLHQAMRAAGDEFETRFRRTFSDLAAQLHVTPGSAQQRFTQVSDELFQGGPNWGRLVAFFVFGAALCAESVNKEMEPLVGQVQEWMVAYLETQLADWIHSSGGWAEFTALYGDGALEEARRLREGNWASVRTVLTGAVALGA

The target of experiment [3] is BCL-XLΔC.
Experiment [4] deals with BCL-2ΔC.

B1: FITC-BIM_(A,cath,K)PA2 (BIMA, valine-citrulline cathepsin-cleavable linker, five lysines, DSPE-PEG(2000) lipid tail) (peptide)
chain: IWIAQELRRIGDEFNAYYARRVXKKKKK
modifications: fluorescein isothiocyanate (FITC) on the N-terminus; citrulline after the linker's valine (written X in the letters); DSPE-PEG(2000)-succinyl lipid tail on the side chain of the C-terminal lysine
As to B1, the Kd in experiment [1] is 453 nM; in experiment [2], 247 nM; in experiment [3], 165 nM; in experiment [4], 187 nM.

Source of the values: article PMC6719084 (2019).
